molecular target: Hck (UniProt P08631); assay: phosphorylation enrichment, bacterial display (enrichment ratio); higher = better substrate or ligand; peptides without Tyr show the background
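Also: 11-residue human phosphosite peptides and single-mutation variants displayed on the E. coli surface, counted by deep sequencing, each peptide's frequency after selection divided by its frequency in the unselected input library; frequency after pTyr selection over input frequency; kinase dosed for 20-30% of maximal phosphorylation in three min.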

Chain of Hck (P08631 whole entry, looked up): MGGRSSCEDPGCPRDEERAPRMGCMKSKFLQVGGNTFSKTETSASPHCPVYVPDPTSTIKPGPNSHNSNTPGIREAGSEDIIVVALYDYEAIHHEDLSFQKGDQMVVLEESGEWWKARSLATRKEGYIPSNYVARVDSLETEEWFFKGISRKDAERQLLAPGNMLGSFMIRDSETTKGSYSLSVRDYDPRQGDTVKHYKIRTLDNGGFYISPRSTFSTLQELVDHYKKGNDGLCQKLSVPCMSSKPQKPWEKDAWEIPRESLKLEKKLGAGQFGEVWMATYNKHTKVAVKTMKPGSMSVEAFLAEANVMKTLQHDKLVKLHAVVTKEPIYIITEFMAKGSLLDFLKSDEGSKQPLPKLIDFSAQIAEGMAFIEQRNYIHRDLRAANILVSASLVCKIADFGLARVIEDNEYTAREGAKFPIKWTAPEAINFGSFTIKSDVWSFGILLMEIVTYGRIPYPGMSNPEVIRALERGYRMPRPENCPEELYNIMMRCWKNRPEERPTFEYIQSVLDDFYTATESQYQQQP

| Sequence | phosphorylation enrichment |
| --- | --- |
| HGEAYYSEVKA [PAK5_Y182_P187A] | 2.47 |
| RGKLFYQEVPA [METTL11B_Y76_A72G] | 0.853 |
| SCTFTCLLGDR [ETHE1_Y38_Y38C] | 0.414 |
| HTVVSYAKVRA [CLOCK_Y378_E380K] | 0.85 |
| GPRSLYNGLVA [UCP2_Y79] | 1.45 |
| IVAREYFSDAD [CAMK2A_Y106_E109D_YF] | 0.415 |
| ANLAKYGNPNE [BCHE_Y505_F502L] | 0.403 |
| PLLEYYRDIFT [CDAN1_Y713] | 0.846 |
| ALAHKYPGGGG [HBB_Y146_H147P] | 0.273 |
| QTENKYVSVSG [EIF2AK3_Y565_D566V] | 0.85 |
| RFFTTYDTNGR [CLCA1_Y665_YF] | 0.787 |
| EVLKNYSQQKD [GOLGA4_Y1551_N1552S] | 0.476 |
| SMVVPYEPPEV [TP53_Y220_V216M] | 0.407 |
| VYYDLYGGEKF [PTPN11_Y66_D61V] | 6.07 |
| LEFGDYHPLKP [VPS35L_Y32] | 4.28 |
| WGTPEYDSVVA [MAP1A_Y1883_A1881P] | 0.76 |
| DLDTDYGSGFP [RNASEH2A_Y206_YF] | 0.49 |

| Sequence | phosphorylation enrichment |
| --- | --- |
| MKKKTYAMGGG [GAN_Y424_I423T] | 0.908 |
| VQVAYYTVMMN [SPATA17_Y84_M86V] | 1.69 |
| GDEVEYMLVSF [GCLC_Y53] | 1.15 |
| IVEYAYNDKAI [PUM3_Y259] | 0.539 |
| GGMAEYTRLHN [EHHADH_Y4] | 0.451 |
| KMATAYIRRMS [BCO1_Y264] | 0.425 |
| NFDRIYIYHLR [MYOF_Y1137_V1136I] | 0.742 |
| VGSEDYGRDLT [SPTAN1_Y1792] | 0.592 |
| DDLEVYLKHPL [SACS_Y3477_L3481P] | 1.73 |
| LRFKQYLRNPP [SHC1_Y315] | 1.04 |
| HIKHNYECLVF [XRCC5_Y416_YF] | 0.821 |
| PINEPYGDDMD [JUP_Y693] | 0.981 |
| LHQSTYQCFDV [SLC7A14_Y693_R695C_YF] | 1.42 |
| KPEKTYGLRNE [CEP43_Y267_K271N] | 0.406 |
| QAPPVYLDVLG [NTRK1_Y791] | 1.02 |
| CDDGKYVYVVT [RPS6KA3_Y488_Y483C] | 0.75 |

molecular target: Jak2 (UniProt O60674); assay: as above
Sequence (O60674 whole entry, looked up): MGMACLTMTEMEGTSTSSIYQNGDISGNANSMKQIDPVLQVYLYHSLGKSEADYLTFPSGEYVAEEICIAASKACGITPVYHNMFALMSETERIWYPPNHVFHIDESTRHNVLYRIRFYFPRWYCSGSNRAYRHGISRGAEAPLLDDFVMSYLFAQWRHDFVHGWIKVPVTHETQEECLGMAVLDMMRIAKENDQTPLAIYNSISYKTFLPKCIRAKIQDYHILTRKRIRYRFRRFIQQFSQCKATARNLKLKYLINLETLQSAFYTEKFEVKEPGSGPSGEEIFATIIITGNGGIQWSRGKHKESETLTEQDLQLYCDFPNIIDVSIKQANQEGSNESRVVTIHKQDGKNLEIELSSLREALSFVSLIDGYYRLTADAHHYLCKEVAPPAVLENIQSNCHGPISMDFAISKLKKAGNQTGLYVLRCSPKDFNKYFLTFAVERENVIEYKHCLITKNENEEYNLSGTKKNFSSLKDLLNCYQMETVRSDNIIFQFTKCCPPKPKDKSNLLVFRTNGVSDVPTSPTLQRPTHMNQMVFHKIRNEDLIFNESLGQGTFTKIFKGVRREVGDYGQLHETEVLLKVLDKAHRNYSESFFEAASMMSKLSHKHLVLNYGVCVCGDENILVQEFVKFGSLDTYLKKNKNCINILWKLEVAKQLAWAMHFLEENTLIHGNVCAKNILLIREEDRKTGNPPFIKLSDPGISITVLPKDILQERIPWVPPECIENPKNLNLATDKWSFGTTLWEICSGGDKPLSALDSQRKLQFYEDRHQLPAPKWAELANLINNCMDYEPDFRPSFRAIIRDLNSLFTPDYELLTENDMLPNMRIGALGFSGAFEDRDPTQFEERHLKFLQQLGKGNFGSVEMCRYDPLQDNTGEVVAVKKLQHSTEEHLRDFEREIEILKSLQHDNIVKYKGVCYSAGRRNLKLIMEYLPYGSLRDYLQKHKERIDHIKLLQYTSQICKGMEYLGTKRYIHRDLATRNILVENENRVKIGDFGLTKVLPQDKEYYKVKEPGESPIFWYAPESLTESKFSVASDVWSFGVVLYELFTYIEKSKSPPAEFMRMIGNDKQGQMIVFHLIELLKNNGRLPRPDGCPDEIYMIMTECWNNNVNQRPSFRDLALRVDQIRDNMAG

| Sequence | phosphorylation enrichment |
| --- | --- |
| HGEAYYSEVKA [PAK5_Y182_P187A] | 1.98 |
| RGKLFYQEVPA [METTL11B_Y76_A72G] | 0.649 |
| SCTFTCLLGDR [ETHE1_Y38_Y38C] | 0.84 |
| HTVVSYAKVRA [CLOCK_Y378_E380K] | 1.04 |
| GPRSLYNGLVA [UCP2_Y79] | 0.502 |
| IVAREYFSDAD [CAMK2A_Y106_E109D_YF] | 0.793 |
| ANLAKYGNPNE [BCHE_Y505_F502L] | 0.622 |
| PLLEYYRDIFT [CDAN1_Y713] | 4.74 |
| ALAHKYPGGGG [HBB_Y146_H147P] | 0.262 |
| QTENKYVSVSG [EIF2AK3_Y565_D566V] | 0.754 |
| RFFTTYDTNGR [CLCA1_Y665_YF] | 0.816 |
| EVLKNYSQQKD [GOLGA4_Y1551_N1552S] | 0.657 |
| SMVVPYEPPEV [TP53_Y220_V216M] | 1.3 |
| VYYDLYGGEKF [PTPN11_Y66_D61V] | 2.2 |
| LEFGDYHPLKP [VPS35L_Y32] | 6.7 |
| WGTPEYDSVVA [MAP1A_Y1883_A1881P] | 0.895 |
| DLDTDYGSGFP [RNASEH2A_Y206_YF] | 0.979 |

| Sequence | phosphorylation enrichment |
| --- | --- |
| MKKKTYAMGGG [GAN_Y424_I423T] | 0.865 |
| VQVAYYTVMMN [SPATA17_Y84_M86V] | 3.06 |
| GDEVEYMLVSF [GCLC_Y53] | 0.976 |
| IVEYAYNDKAI [PUM3_Y259] | 1.15 |
| GGMAEYTRLHN [EHHADH_Y4] | 0.691 |
| KMATAYIRRMS [BCO1_Y264] | 0.58 |
| NFDRIYIYHLR [MYOF_Y1137_V1136I] | 1.1 |
| VGSEDYGRDLT [SPTAN1_Y1792] | 1.24 |
| DDLEVYLKHPL [SACS_Y3477_L3481P] | 1.32 |
| LRFKQYLRNPP [SHC1_Y315] | 1.17 |
| HIKHNYECLVF [XRCC5_Y416_YF] | 0.547 |
| PINEPYGDDMD [JUP_Y693] | 1.89 |
| LHQSTYQCFDV [SLC7A14_Y693_R695C_YF] | 1.14 |
| KPEKTYGLRNE [CEP43_Y267_K271N] | 0.512 |
| QAPPVYLDVLG [NTRK1_Y791] | 1.16 |
| CDDGKYVYVVT [RPS6KA3_Y488_Y483C] | 1.42 |

molecular target: MERTK (UniProt Q12866); assay: as above
Sequence (Q12866 whole entry, looked up): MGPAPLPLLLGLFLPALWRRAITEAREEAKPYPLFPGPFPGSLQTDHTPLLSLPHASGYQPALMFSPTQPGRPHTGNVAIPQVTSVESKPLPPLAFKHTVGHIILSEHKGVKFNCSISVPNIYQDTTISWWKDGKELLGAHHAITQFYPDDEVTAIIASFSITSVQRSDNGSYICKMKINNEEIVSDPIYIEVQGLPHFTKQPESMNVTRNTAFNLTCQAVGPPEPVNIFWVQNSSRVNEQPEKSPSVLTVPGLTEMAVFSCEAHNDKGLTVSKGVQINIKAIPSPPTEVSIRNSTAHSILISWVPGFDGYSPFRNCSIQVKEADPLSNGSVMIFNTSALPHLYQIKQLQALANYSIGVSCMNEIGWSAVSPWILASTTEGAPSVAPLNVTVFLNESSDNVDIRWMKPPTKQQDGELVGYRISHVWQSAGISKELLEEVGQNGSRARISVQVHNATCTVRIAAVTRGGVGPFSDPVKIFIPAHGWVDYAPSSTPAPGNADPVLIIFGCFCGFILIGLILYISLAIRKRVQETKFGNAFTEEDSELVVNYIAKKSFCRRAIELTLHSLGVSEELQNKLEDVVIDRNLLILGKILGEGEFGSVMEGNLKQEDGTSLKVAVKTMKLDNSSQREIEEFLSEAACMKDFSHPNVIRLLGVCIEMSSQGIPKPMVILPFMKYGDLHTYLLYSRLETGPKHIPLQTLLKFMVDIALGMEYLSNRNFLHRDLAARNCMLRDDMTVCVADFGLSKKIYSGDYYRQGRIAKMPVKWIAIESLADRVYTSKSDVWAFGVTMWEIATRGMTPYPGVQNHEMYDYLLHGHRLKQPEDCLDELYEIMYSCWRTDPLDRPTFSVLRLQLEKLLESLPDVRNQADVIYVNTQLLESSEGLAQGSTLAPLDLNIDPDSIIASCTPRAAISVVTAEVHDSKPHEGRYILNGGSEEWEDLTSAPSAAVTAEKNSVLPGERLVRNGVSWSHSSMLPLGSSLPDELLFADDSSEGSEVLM

| Sequence | phosphorylation enrichment |
| --- | --- |
| HGEAYYSEVKA [PAK5_Y182_P187A] | 4.12 |
| RGKLFYQEVPA [METTL11B_Y76_A72G] | 3.21 |
| SCTFTCLLGDR [ETHE1_Y38_Y38C] | 0.465 |
| HTVVSYAKVRA [CLOCK_Y378_E380K] | 0.934 |
| GPRSLYNGLVA [UCP2_Y79] | 0.381 |
| IVAREYFSDAD [CAMK2A_Y106_E109D_YF] | 0.378 |
| ANLAKYGNPNE [BCHE_Y505_F502L] | 0.379 |
| PLLEYYRDIFT [CDAN1_Y713] | 0.782 |
| ALAHKYPGGGG [HBB_Y146_H147P] | 0.334 |
| QTENKYVSVSG [EIF2AK3_Y565_D566V] | 0.548 |
| RFFTTYDTNGR [CLCA1_Y665_YF] | 0.707 |
| EVLKNYSQQKD [GOLGA4_Y1551_N1552S] | 0.458 |
| SMVVPYEPPEV [TP53_Y220_V216M] | 0.465 |
| VYYDLYGGEKF [PTPN11_Y66_D61V] | 8.55 |
| LEFGDYHPLKP [VPS35L_Y32] | 1.66 |
| WGTPEYDSVVA [MAP1A_Y1883_A1881P] | 0.359 |
| DLDTDYGSGFP [RNASEH2A_Y206_YF] | 0.38 |

| Sequence | phosphorylation enrichment |
| --- | --- |
| MKKKTYAMGGG [GAN_Y424_I423T] | 0.578 |
| VQVAYYTVMMN [SPATA17_Y84_M86V] | 4.41 |
| GDEVEYMLVSF [GCLC_Y53] | 0.473 |
| IVEYAYNDKAI [PUM3_Y259] | 0.397 |
| GGMAEYTRLHN [EHHADH_Y4] | 0.378 |
| KMATAYIRRMS [BCO1_Y264] | 0.468 |
| NFDRIYIYHLR [MYOF_Y1137_V1136I] | 0.63 |
| VGSEDYGRDLT [SPTAN1_Y1792] | 0.456 |
| DDLEVYLKHPL [SACS_Y3477_L3481P] | 0.562 |
| LRFKQYLRNPP [SHC1_Y315] | 0.564 |
| HIKHNYECLVF [XRCC5_Y416_YF] | 0.382 |
| PINEPYGDDMD [JUP_Y693] | 0.919 |
| LHQSTYQCFDV [SLC7A14_Y693_R695C_YF] | 2.26 |
| KPEKTYGLRNE [CEP43_Y267_K271N] | 0.397 |
| QAPPVYLDVLG [NTRK1_Y791] | 0.901 |
| CDDGKYVYVVT [RPS6KA3_Y488_Y483C] | 0.525 |

tested on: c-Abl (mouse); assay: as above

| Sequence | phosphorylation enrichment |
| --- | --- |
| HGEAYYSEVKA [PAK5_Y182_P187A] | 0.506 |
| RGKLFYQEVPA [METTL11B_Y76_A72G] | 0.503 |
| SCTFTCLLGDR [ETHE1_Y38_Y38C] | 0.737 |
| HTVVSYAKVRA [CLOCK_Y378_E380K] | 0.65 |
| GPRSLYNGLVA [UCP2_Y79] | 0.555 |
| IVAREYFSDAD [CAMK2A_Y106_E109D_YF] | 0.8 |
| ANLAKYGNPNE [BCHE_Y505_F502L] | 0.565 |
| PLLEYYRDIFT [CDAN1_Y713] | 1.45 |
| ALAHKYPGGGG [HBB_Y146_H147P] | 0.436 |
| QTENKYVSVSG [EIF2AK3_Y565_D566V] | 0.938 |
| RFFTTYDTNGR [CLCA1_Y665_YF] | 0.858 |
| EVLKNYSQQKD [GOLGA4_Y1551_N1552S] | 0.494 |
| SMVVPYEPPEV [TP53_Y220_V216M] | 0.852 |
| VYYDLYGGEKF [PTPN11_Y66_D61V] | 0.918 |
| LEFGDYHPLKP [VPS35L_Y32] | 1.19 |
| WGTPEYDSVVA [MAP1A_Y1883_A1881P] | 0.723 |
| DLDTDYGSGFP [RNASEH2A_Y206_YF] | 0.673 |

| Sequence | phosphorylation enrichment |
| --- | --- |
| MKKKTYAMGGG [GAN_Y424_I423T] | 0.761 |
| VQVAYYTVMMN [SPATA17_Y84_M86V] | 1.01 |
| GDEVEYMLVSF [GCLC_Y53] | 0.677 |
| IVEYAYNDKAI [PUM3_Y259] | 0.859 |
| GGMAEYTRLHN [EHHADH_Y4] | 0.532 |
| KMATAYIRRMS [BCO1_Y264] | 0.544 |
| NFDRIYIYHLR [MYOF_Y1137_V1136I] | 0.734 |
| VGSEDYGRDLT [SPTAN1_Y1792] | 1.04 |
| DDLEVYLKHPL [SACS_Y3477_L3481P] | 0.842 |
| LRFKQYLRNPP [SHC1_Y315] | 0.847 |
| HIKHNYECLVF [XRCC5_Y416_YF] | 0.4 |
| PINEPYGDDMD [JUP_Y693] | 1.25 |
| LHQSTYQCFDV [SLC7A14_Y693_R695C_YF] | 1.05 |
| KPEKTYGLRNE [CEP43_Y267_K271N] | 0.551 |
| QAPPVYLDVLG [NTRK1_Y791] | 0.954 |
| CDDGKYVYVVT [RPS6KA3_Y488_Y483C] | 1.05 |

From the supplement of paper PMC10065799, “High-throughput profiling of sequence recognition by tyrosine kinases and SH2 domains using bacterial peptide display” (eLife, 2023)
